The values that follow come from paper PMC7439691, “SRSF1 regulates exosome microRNA enrichment in human cancer cells”.

Data set [1] deals with T1, GST-SRSF1 (human, UniProt Q07955 1-248). The data set can be described thus: competition; EMSA vs IRD-800 miR-1246; did not alter binding; EMSA: 40 mM Tris pH 8.0, 30 mM KCl, 1 mM MgCl2, 0.001% NP40, 1 mM DTT, 5% glycerol, room temperature 40 min, 4% native gel. The following applies: protein: recombinant; tags: N-terminal GST (pGEX6P); no self-complementarity. (In general: A gel shift assay detects complexes by their altered migration in electrophoresis.)

Data set [2] concerns the target T1, GST-SRSF1. The data set can be described thus: competition; EMSA vs IRD-800 miR-1246; concentration-dependent; dissociation constant only in Fig. 6f; EMSA: 40 mM Tris pH 8.0, 30 mM KCl, 1 mM MgCl2, 0.001% NP40, 1 mM DTT, 5% glycerol, room temperature 40 min, 4% native gel. The following applies: protein: recombinant; tags: N-terminal GST (pGEX6P); no self-complementarity.

T1 sequence (Q07955 whole entry): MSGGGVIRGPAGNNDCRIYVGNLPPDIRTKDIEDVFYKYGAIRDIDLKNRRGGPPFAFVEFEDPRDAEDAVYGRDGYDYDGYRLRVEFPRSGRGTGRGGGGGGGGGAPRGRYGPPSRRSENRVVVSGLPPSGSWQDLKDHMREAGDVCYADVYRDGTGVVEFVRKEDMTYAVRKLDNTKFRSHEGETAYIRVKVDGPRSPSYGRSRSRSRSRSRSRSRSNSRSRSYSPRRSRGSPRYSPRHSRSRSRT

UUGGACUAGGACUAGGAU (ssRNA) [Decoy mimic 1 (D1)]: the binding result with GST-SRSF1 [1] is “no binding”.

AGGAAGGAAGGAAGGA (ssRNA) [Decoy mimic 2 (D2)]: in the data set with GST-SRSF1 [2], the binding result was “binds”.
